From PMC11574045, “A cofactor-induced repressive type of transcription factor condensation can be induced by synthetic peptides to suppress tumorigenesis” (The EMBO Journal, 2024)

B1: ZBTB6 (protein, UniProt Q15916 1-424, looked up)
Zinc finger and BTB …: MAAESDVLHFQFEQQGDVVLQKMNLLRQQNLFCDVSIYINDTEFQGHKVILAACSTFMRDQFLLTQSKHVRITILQSAEVGRKLLLSCYTGALEVKRKELLKYLTAASYLQMVHIVEKCTEALSKYLEIDLSMKNNNQHTDLCQSSDPDVKNEDENSDKDCEIIEISEDSPVNIDFHVKEEESNALQSTVESLTSERKEMKSPELSTVDIGFKDNEICILHVESISTAGVENGQFSQPCTSSKASMYFSETQHSLINSTVESRVAEVPGNQDQGLFCENTEGSYGTVSEIQNLEEGYSLRHQCPRCPRGFLHVENYLRHLKMHKLFLCLQCGKTFTQKKNLNRHIRGHMGIRPFQCTVCLKTFTAKSTLQDHLNIHSGDRPYKCHCCDMDFKHKSALKKHLTSVHGRSSGEKLSRPDLKRQSLL
B2: ZBTB48 (protein, UniProt P10074 1-688, looked up)
Zinc finger and BTB …: MDGSFVQHSVRVLQELNKQREKGQYCDATLDVGGLVFKAHWSVLACCSHFFQSLYGDGSGGSVVLPAGFAEIFGLLLDFFYTGHLALTSGNRDQVLLAARELRVPEAVELCQSFKPKTSVGQAAGGQSGLGPPASQNVNSHVKEPAGLEEEEVSRTLGLVPRDQEPRGSHSPQRPQLHSPAQSEGPSSLCGKLKQALKPCPLEDKKPEDCKVPPRPLEAEGAQLQGGSNEWEVVVQVEDDGDGDYMSEPEAVLTRRKSNVIRKPCAAEPALSAGSLAAEPAENRKGTAVPVECPTCHKKFLSKYYLKVHNRKHTGEKPFECPKCGKCYFRKENLLEHEARNCMNRSEQVFTCSVCQETFRRRMELRVHMVSHTGEMPYKCSSCSQQFMQKKDLQSHMIKLHGAPKPHACPTCAKCFLSRTELQLHEAFKHRGEKLFVCEECGHRASSRNGLQMHIKAKHRNERPHVCEFCSHAFTQKANLNMHLRTHTGEKPFQCHLCGKTFRTQASLDKHNRTHTGERPFSCEFCEQRFTEKGPLLRHVASRHQEGRPHFCQICGKTFKAVEQLRVHVRRHKGVRKFECTECGYKFTRQAHLRRHMEIHDRVENYNPRQRKLRNLIIEDEKMVVVALQPPAELEVGSAEVIVESLAQGGLASQLPGQRLCAEESFTGPGVLEPSLIITAAVPEDCDT
B3: ZBTB5 (protein, UniProt O15062 1-677, looked up)
Zinc finger and BTB …: MDFPGHFEQIFQQLNYQRLHGQLCDCVIVVGNRHFKAHRSVLAACSTHFRALFSVAEGDQTMNMIQLDSEVVTAEAFAALIDMMYTSTLMLGESNVMDVLLAASHLHLNSVVKACKHYLTTRTLPMSPPSERVQEQSARMQRSFMLQQLGLSIVSSALNSSQNGEEQPAPMSSSMRSNLDQRTPFPMRRLHKRKQSAEERARQRLRPSIDESAISDVTPENGPSGVHSREEFFSPDSLKIVDNPKADGMTDNQEDSAIMFDQSFGTQEDAQVPSQSDNSAGNMAQLSMASRATQVETSFDQEAAPEKSSFQCENPEVGLGEKEHMRVVVKSEPLSSPEPQDEVSDVTSQAEGSESVEVEGVVVSAEKIDLSPESSDRSFSDPQSSTDRVGDIHILEVTNNLEHKSTFSISNFLNKSRGNNFTANQNNDDNIPNTTSDCRLESEAPYLLSPEAGPAGGPSSAPGSHVENPFSEPADSHFVRPMQEVMGLPCVQTSGYQGGEQFGMDFSRSGLGLHSSFSRVMIGSPRGGASNFPYYRRIAPKMPVVTSVRSSQIPENSTSSQLMMNGATSSFENGHPSQPGPPQLTRASADVLSKCKKALSEHNVLVVEGARKYACKICCKTFLTLTDCKKHIRVHTGEKPYACLKCGKRFSQSSHLYKHSKTTCLRWQSSNLPSTLL
B4: ZDHHC18 (protein, UniProt Q9NUE0 1-388, looked up)
Palmitoyltransferase ZDHHC18: MKDCEYQQISPGAAPLPASPGARRPGPAASPTPGPGPAPPAAPAPPRWSSSGSGSGSGSGSLGRRPRRKWEVFPGRNRFYCGGRLMLAGHGGVFALTLLLILTTTGLFFVFDCPYLARKLTLAIPIIAAILFFFVMSCLLQTSFTDPGILPRATVCEAAALEKQIDNTGSSTYRPPPRTREVLINGQMVKLKYCFTCKMFRPPRTSHCSVCDNCVERFDHHCPWVGNCVGRRNYRFFYAFILSLSFLTAFIFACVVTHLTLRAQGSNFLSTLKETPASVLELVICFFSIWSILGLSGFHTYLVASNLTTNEDIKGSWSSKRGGEASVNPYSHKSIITNCCAVLCGPLPPSLIDRRGFVQSDTVLPSPIRSDEPACRAKPDASMVGGHP
B5: ZBTB44 (protein, UniProt Q8NCP5 1-570, looked up)
Zinc finger and BTB …: MGVKTFTHSSSSHSQEMLGKLNMLRNDGHFCDITIRVQDKIFRAHKVVLAACSDFFRTKLVGQAEDENKNVLDLHHVTVTGFIPLLEYAYTATLSINTENIIDVLAAASYMQMFSVASTCSEFMKSSILWNTPNSQPEKGLDAGQENNSNCNFTSRDGSISPVSSECSVVERTIPVCRESRRKRKSYIVMSPESPVKCGTQTSSPQVLNSSASYSENRNQPVDSSLAFPWTFPFGIDRRIQPEKVKQAENTRTLELPGPSETGRRMADYVTCESTKTTLPLGTEEDVRVKVERLSDEEVHEEVSQPVSASQSSLSDQQTVPGSEQVQEDLLISPQSSSIGSVDEGVSEGLPTLQSTSSTNAPPDDDDRLENVQYPYQLYIAPSTSSTERPSPNGPDRPFQCPTCGVRFTRIQNLKQHMLIHSGIKPFQCDRCGKKFTRAYSLKMHRLKHEGKRCFRCQICSATFTSFGEYKHHMRVSRHIIRKPRIYECKTCGAMFTNSGNLIVHLRSLNHEASELANYFQSSDFLVPDYLNQEQEETLVQYDLGEHGFESNSSVQMPVISQYHSKGKEP
B6: ZBTB4 (protein, UniProt Q9P1Z0 1-1013, looked up)
Zinc finger and BTB …: MPPPAEVTDPSHAPAVLRQLNEQRLRGLFCDVTLIAGDTKFPAHRSVLAASSPFFREALLTSAPLPLPPATGGAAPNPATTTAASSSSSSSSSSSSSSSSASSSSSSSSSSPPPASPPASSPPRVLELPGVPAAAFSDVLNFIYSARLALPGGGGDGAAVAEIGALGRRLGISRLQGLGEGGDAWVPPTPAPMATSQPEEDSFGPGPRPAGEWEGDRAEAQAPDLQCSLPRRPLPCPQCGKSFIHPKRLQTHEAQCRRGASTRGSTGLGAGGAGPGGPAGVDASALPPPVGFRGGPEHVVKVVGGHVLYVCAACERSYVTLSSLKRHSNVHSWRRKYPCRYCEKVFALAEYRTKHEVWHTGERRYQCIFCWETFVTYYNLKTHQRAFHGISPGLLASEKTPNGGYKPKLNTLKLYRLLPMRAAKRPYKTYSQGAPEAPLSPTLNTPAPVAMPASPPPGPPPAPEPGPPPSVITFAHPAPSVIVHGGSSSGGGGSGTASTGGSQAASVITYTAPPRPPKKREYPPPPPEPAATPTSPATAVSPATAAGPAMATTTEEAKGRNPRAGRTLTYTAKPVGGIGGGGGPPTGAGRGPSQLQAPPPLCQITVRIGEEAIVKRRISETDLRPGELSGEEMEESEEDEEEEDEEEEEEDEEESKAGGEDQLWRPYYSYKPKRKAGAAGGASVGGSGLPRGRRPPRWRQKLERRSWEETPAAESPAGRARTERRHRCGDCAQTFTTLRKLRKHQEAHGGGSHSSRAGRRPSTRFTCPHCAKVCKTAAALSRHGQRHAAERPGGTPTPVIAYSKGSAGTRPGDVKEEAPQEMQVSSSSGEAGGGSTAAEEASETASLQDPIISGGEEPPVVASGGSYVYPPVQEFPLALIGGGREPGGGRGKSGSEGPVGAGEGDRMEGIGAAKVTFYPEPYPLVYGPQLLAAYPYNFSNLAALPVALNMVLPDEKGAGALPFLPGVFGYAVNPQAAPPAPPTPPPPTLPPPIPPKGEGERAGVERTQKGDVG
B7: ZBTB38 (protein, UniProt Q8NAP3 1-1195, looked up)
Zinc finger and BTB …: MTVMSLSRDLKDDFHSDTVLSILNEQRIRGILCDVTIIVEDTKFKAHSNVLAASSLYFKNIFWSHTICISSHVLELDDLKAEVFTEILNYIYSSTVVVKRQETVTDLAAAGKKLGISFLEDLTDRNFSNSPGPYVFCITEKGVVKEEKNEKRHEEPAITNGPRITNAFSIIETENSNNMFSPLDLRASFKKVSDSMRTASLCLERTDVCHEAEPVRTLAEHSYAVSSVAEAYRSQPVREHDGSSPGNTGKENCEALAAKPKTCRKPKTFSIPQDSDSATENIPPPPVSNLEVNQERSPQPAAVLTRSKSPNNEGDVHFSREDENQSSDVPGPPAAEVPPLVYNCSCCSKAFDSSTLLSAHMQLHKPTQEPLVCKYCNKQFTTLNRLDRHEQICMRSSHMPIPGGNQRFLENYPTIGQNGGSFTGPEPLLSENRIGEFSSTGSTLPDTDHMVKFVNGQMLYSCVVCKRSYVTLSSLRRHANVHSWRRTYPCHYCNKVFALAEYRTRHEIWHTGERRYQCIFCLETFMTYYILKNHQKSFHAIDHRLSISKKTANGGLKPSVYPYKLYRLLPMKCKRAPYKSYRNSSYENARENSQMNESAPGTYVVQNPHSSELPTLNFQDTVNTLTNSPAIPLETSACQDIPTSANVQNAEGTKWGEEALKMDLDNNFYSTEVSVSSTENAVSSDLRAGDVPVLSLSNSSENAASVISYSGSAPSVIVHSSQFSSVIMHSNAIAAMTSSNHRAFSDPAVSQSLKDDSKPEPDKVGRFASRPKSIKEKKKTTSHTRGEIPEESNYVADPGGSLSKTTNIAEETSKIETYIAKPALPGTSTNSNVAPLCQITVKIGNEAIVKRHILGSKLFYKRGRRPKYQMQEEPLPQGNDPEPSGDSPLGLCQSECMEMSEVFDDASDQDSTDKPWRPYYNYKPKKKSRQLKKMRKVNWRKEHGNRSPSHKCKYPAELDCAVGKAPQDKPFEEEETKEMPKLQCELCDGDKAVGAGNQGRPHRHLTSRPYACELCAKQFQSPSTLKMHMRCHTGEKPYQCKTCGRCFSVQGNLQKHERIHLGLKEFVCQYCNKAFTLNETLKIHERIHTGEKRYHCQFCFQRFLYLSTKRNHEQRHIREHNGKGYACFQCPKICKTAAALGMHQKKHLFKSPSQQEKIGDVCHENSNPLENQHFIGSEDNDQKDNIQTGVENVVL
B8: ZBTB43 (protein, UniProt O43298 1-467, looked up)
Zinc finger and BTB …: MEPGTNSFRVEFPDFSSTILQKLNQQRQQGQLCDVSIVVQGHIFRAHKAVLAASSPYFCDQVLLKNSRRIVLPDVMNPRVFENILLSSYTGRLVMPAPEIVSYLTAASFLQMWHVVDKCTEVLEGNPTVLCQKLNHGSDHQSPSSSSYNGLVESFELGSGGHTDFPKAQELRDGENEEESTKDELSSQLTEHEYLPSNSSTEHDRLSTEMASQDGEEGASDSAEFHYTRPMYSKPSIMAHKRWIHVKPERLEQACEGMDVHATYDEHQVTESINTVQTEHTVQPSGVEEDFHIGEKKVEAEFDEQADESNYDEQVDFYGSSMEEFSGERSDGNLIGHRQEAALAAGYSENIEMVTGIKEEASHLGFSATDKLYPCQCGKSFTHKSQRDRHMSMHLGLRPYGCGVCGKKFKMKHHLVGHMKIHTGIKPYECNICAKRFMWRDSFHRHVTSCTKSYEAAKAEQNTTEAN
B9: C1QBP (protein, UniProt Q07021 74-282, looked up)
Complement component 1 Q …: LHTDGDKAFVDFLSDEIKEERKIQKHKTLPKMSGGWELELNGTEAKLVRKVAGEKITVTFNINNSIPPTFDGEEEPSQGQKVEEQEPELTSTPNFVVEVIKNDDGKKALVLDCHYPEDEVGQEDEAESDIFSIREVSFQSTGESEWKDTNYTLNTDSLDWALYDHLMDFLADRGVDNTFADELVELSTALEHQEYITFLEDLKSFVKSQ

Tested on: HEK293FT cells transfected with TF library
Test: Screening of TF condensates based on fluorescent puncta
Format: cell-based
Details: Figure 1B numerical data; TF library screen, one value per transcriptional factor
In short: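 Puncta scoring used automated confocal imaging of fifty random fields per well, after anti-Flag or anti-GAL4 immunofluorescence (Alexa 488) in PFA-fixed cells. HEK293FT cells carried TF library plasmids delivered with PEI (1.6 μg/ml DNA). At 60 h they were switched for 12 h to glucose-containing or glucose-free medium.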

Molecule | Z score of condensed fraction
B1 | -0.2886
B2 | 0.7506
B3 | -0.7904
B4 | -0.2463
B5 | -0.608
B6 | 1.258
B7 | -1.284
B8 | 0.02104
B9 | 2.537
